Measurements from publication PMC6065307, “Structural dynamics of the transaminase active site revealed by the crystal structure of a co-factor free omega-transaminase from Vibrio fluvialis JS17” (Scientific Reports, 2018).

Target: the molecule itself
Experiment: SEC-MALS; Superdex 200 HR 10/30 coupled to MALS and refractive index detectors; 20 mM Tris-HCl pH 8.0, 150 mM NaCl; measured mass 103.72 kDa against 52.79 kDa theoretical monomer

B1: ω-transaminase from Vibrio fluvialis JS17 (Vfat), apo (cofactor-free) form (enzyme, UniProt F2XBU9 1-453, looked up)
chain: MNKPQSWEARAETYSLYGFTDMPSLHQRGTVVVTHGEGPYIVDVNGRRYLDANSGLWNMVAGFDHKGLIDAAKAQYERFPGYHAFFGRMSDQTVMLSEKLVEVSPFDSGRVFYTNSGSEANDTMVKMLWFLHAAEGKPQKRKILTRWNAYHGVTAVSASMTGKPYNSVFGLPLPGFVHLTCPHYWRYGEEGETEEQFVARLARELEETIQREGADTIAGFFAEPVMGAGGVIPPAKGYFQAILPILRKYDIPVISDEVICGFGRTGNTWGCVTYDFTPDAIISSKNLTAGFFPMGAVILGPELSKRLETAIEAIEEFPHGFTASGHPVGCAIALKAIDVVMNEGLAENVRRLAPRFEERLKHIAERPNIGEYRGIGFMWALEAVKDKASKTPFDGNLSVSERIANTCTDLGLICRPLGQSVVLCPPFILTEAQMDEMFDKLEKALDKVFAEVA
notes: ω-transaminase (amine:pyruvate transaminase) from Vibrio fluvialis JS17; 'the coding region of Vfat' cloned into pET24ma; theoretical mass with the His-tag 52.79 kDa; Homodimer by MALS and in the crystal; also called apo Vfat; amine:pyruvate transaminase; source: E. coli BL21 (DE3), purified (Ni-NTA, Superdex 200 gel filtration); not shown: His-tag, C-terminal, kept
- stoichiometry N: 2
